First the molecules themselves.
T1: Bovine, dephosphorylated, Myelin Basic Protein (MBP), P02687
T1 chain: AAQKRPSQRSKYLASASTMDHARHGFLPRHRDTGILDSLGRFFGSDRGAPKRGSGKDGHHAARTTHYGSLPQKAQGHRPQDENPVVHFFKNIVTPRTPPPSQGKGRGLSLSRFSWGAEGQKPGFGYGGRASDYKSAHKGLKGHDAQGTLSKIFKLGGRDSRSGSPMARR

B1: FGFR2 (protein)
chain: RMKNTTKKPDFSSQPAVHKLTKRIPLRRQVTVSAESSSSMNSNTPLVRITTRLSSTADTPMLAGVSEYELPEDPKWEFPRDKLTLGKPLGEGCFGQVVMAEAVGIDKDKPKEAVTVAVKMLKDDATEKDLSDLVSEMEMMKMIGKHKNIINLLGACTQDGPLYVIVEYASKGNLREYLRARRPPGMEYSYDINRVPEEQMTFKDLVSCTYQLARGMEYLASQKCIHRDLAARNVLVTENNVMKIADFGLARDINNIDYYKKTTNGRLPVKWMAPEALFDRVYTHQSDVWSFGVLMWEIFTLGGSPYPGIPVEELFKLLKEGHRMDKPANCTNELYMMMRDCWHAVPSQRPTFKQLVEDLDRILTLTTNEEYLDLSQPLEQYSPSYPDTRSSCSSGDDSVFSPDPMPYEPCLPQYPHINGSVKT
B2: TTK (protein)
chain: MESEDLSGRELTIDSIMNKVRDIKNKFKNEDLTDELSLNKISADTTDNSGTVNQIMMMANNPEDWLSLLLKLEKNSVPLSDALLNKLIGRYSQAIEALPPDKYGQNESFARIQVRFAELKAIQEPDDARDYFQMARANCKKFAFVHISFAQFELSQGNVKKSKQLLQKAVERGAVPLEMLEIALRNLNLQKKQLLSEEEKKNLSASTVLTAQESFSGSLGHLQNRNNSCDSRGQTTKARFLYGENMPPQDAEIGYRNSLRQTNKTKQSCPFGRVPVNLLNSPDCDVKTDDSVVPCFMKRQTSRSECRDLVVPGSKPSGNDSCELRNLKSVQNSHFKEPLVSDEKSSELIITDSITLKNKTESSLLAKLEETKEYQEPEVPESNQKQWQSKRKSECINQNPAASSNHWQIPELARKVNTEQKHTTFEQPVFSVSKQSPPISTSKWFDPKSICKTPSSNTLDDYMSCFRTPVVKNDFPPACQLSTPYGQPACFQQQQHQILATPLQNLQVLASSSANECISVKGRIYSILKQIGSGGSSKVFQVLNEKKQIYAIKYVNLEEADNQTLDSYRNEIAYLNKLQQHSDKIIRLYDYEITDQYIYMVMECGNIDLNSWLKKKKSIDPWERKSYWKNMLEAVHTIHQHGIVHSDLKPANFLIVDGMLKLIDFGIANQMQPDTTSVVKDSQVGTVNYMPPEAIKDMSSSRENGKSKSKISPKSDVWSLGCILYYMTYGKTPFQQIINQISKLHAIIDPNHEIEFPDIPEKDLQDVLKCCLKRDPKQRISIPELLAHPYVQIQTHPVNQMAKGTTEEMKYVLGQLVGLNSPNSILKAAKTLYEHYSGGESHNSSSSKTFEKKRGKK
B3: KIT (protein)
chain: TYKYLQKPMYEVQWKVVEEINGNNYVYIDPTQLPYDHKWEFPRNRLSFGKTLGAGAFGKVVEATAYGLIKSDAAMTVAVKMLKPSAHLTEREALMSELKVLSYLGNHMNIVNLLGACTIGGPTLVITEYCCYGDLLNFLRRKRDSFICSKQEDHAEAALYKNLLHSKESSCSDSTNEYMDMKPGVSYVVPTKADKRRSVRIGSYIERDVTPAIMEDDELALDLEDLLSFSYQVAKGMAFLASKNCIHRDLAARNILLTHGRITKICDFGLARDIKNDSNYVVKGNARLPVKWMAPESIFNCVYTFESDVWSYGIFLWELFSLGSSPYPGMPVDSKFYKMIKEGFRMLSPEHAPAEMYDIMKTCWDADPLKRPTFKQIVQLIEKQISESTNHIYSNLANCSPNRQKPVVDHSVRINSVGSTASSSQPLLVHDDV
B4: MERTK (protein)
chain: KRVQETKFGNAFTEEDSELVVNYIAKKSFCRRAIELTLHSLGVSEELQNKLEDVVIDRNLLILGKILGEGEFGSVMEGNLKQEDGTSLKVAVKTMKLDNSSQREIEEFLSEAACMKDFSHPNVIRLLGVCIEMSSQGIPKPMVILPFMKYGDLHTYLLYSRLETGPKHIPLQTLLKFMVDIALGMEYLSNRNFLHRDLAARNCMLRDDMTVCVADFGLSKKIYSGDYYRQGRIAKMPVKWIAIESLADRVYTSKSDVWAFGVTMWEIATRGMTPYPGVQNHEMYDYLLHGHRLKQPEDCLDELYEIMYSCWRTDPLDRPTFSVLRLQLEKLLESLPDVRNQADVIYVNTQLLESSEGLAQGSTLAPLDLNIDPDSIIASCTPRAAISVVTAEVHDSKPHEGRYILNGGSEEWEDLTSAPSAAVTAEKNSVLPGERLVRNGVSWSHSSMLPLGSSLPDELLFADDSSEGSEVLM
B5: FGFR3 (protein)
chain: RLRSPPKKGLGSPTVHKISRFPLKRQVSLESNASMSSNTPLVRIARLSSGEGPTLANVSELELPADPKWELSRARLTLGKPLGEGCFGQVVMAEAIGIDKDRAAKPVTVAVKMLKDDATDKDLSDLVSEMEMMKMIGKHKNIINLLGACTQGGPLYVLVEYAAKGNLREFLRARRPPGLDYSFDTCKPPEEQLTFKDLVSCAYQVARGMEYLASQKCIHRDLAARNVLVTEDNVMKIADFGLARDVHNLDYYKKTTNGRLPVKWMAPEALFDRVYTHQSDVWSFGVLLWEIFTLGGSPYPGIPVEELFKLLKEGHRMDKPANCTHDLYMIMRECWHAAPSQRPTFKQLVEDLDRVLTVTSTDEYLDLSAPFEQYSPGGQDTPSSSSSGDDSVFAHDLLPPAPPSSGGSRT
B6: FLT1(VEGFR1) (protein)
chain: RKMKRSSSEIKTDYLSIIMDPDEVPLDEQCERLPYDASKWEFARERLKLGKSLGRGAFGKVVQASAFGIKKSPTCRTVAVKMLKEGATASEYKALMTELKILTHIGHHLNVVNLLGACTKQGGPLMVIVEYCKYGNLSNYLKSKRDLFFLNKDAALHMEPKKEKMEPGLEQGKKPRLDSVTSSESFASSGFQEDKSLSDVEEEEDSDGFYKEPITMEDLISYSFQVARGMEFLSSRKCIHRDLAARNILLSENNVVKICDFGLARDIYKNPDYVRKGDTRLPLKWMAPESIFDKIYSTKSDVWSYGVLLWEIFSLGGSPYPGVQMDEDFCSRLREGMRMRAPEYSTPEIYQIMLDCWHRDPKERPRFAELVEKLGDLLQANVQQDGKDYIPINAILTGNSGFTYSTPAFSEDFFKESISAPKFNSGSSDDVRYVNAFKFMSLERIKTFEELLPNATSMFDDYQGDSSTLLASPMLKRFTWTDSKPKASLKIDLRVTSKSKESGLSDVSRPSFCHSSCGHVSEGKRRFTYDHAELERKIACCSPPPDYNSVVLYSTPPI
B7: TBK1 (protein)
chain: MQSTSNHLWLLSDILGQGATANVFRGRHKKTGDLFAIKVFNNISFLRPVDVQMREFEVLKKLNHKNIVKLFAIEEETTTRHKVLIMEFCPCGSLYTVLEEPSNAYGLPESEFLIVLRDVVGGMNHLRENGIVHRDIKPGNIMRVIGEDGQSVYKLTDFGAARELEDDEQFVSLYGTEEYLHPDMYERAVLRKDHQKKYGATVDLWSIGVTFYHAATGSLPFRPFEGPRRNKEVMYKIITGKPSGAISGVQKAENGPIDWSGDMPVSCSLSRGLQVLLTPVLANILEADQEKCWGFDQFFAETSDILHRMVIHVFSLQQMTAHKIYIHSYNTATIFHELVYKQTKIISSNQELIYEGRRLVLEPGRLAQHFPKTTEENPIFVVSREPLNTIGLIYEKISLPKVHPRYDLDGDASMAKAITGVVCYACRIASTLLLYQELMRKGIRWLIELIKDDYNETVHKKTEVVITLDFCIRNIEKTVKVYEKLMKINLEAAELGEISDIHTKLLRLSSSQGTIETSLQDIDSRLSPGGSLADAWAHQEGTHPKDRNVEKLQVLLNCMTEIYYQFKKDKAERRLAYNEEQIHKFDKQKLYYHATKAMTHFTDECVKKYEAFLNKSEEWIRKMLHLRKQLLSLTNQCFDIEEEVSKYQEYTNELQETLPQKMFTASSGIKHTMTPIYPSSNTLVEMTLGMKKLKEEMEGVVKELAENNHILERFGSLTMDGGLRNVDCL
B8: IGF1R (protein)
chain: RKRNNSRLGNGVLYASVNPEYFSAADVYVPDEWEVAREKITMSRELGQGSFGMVYEGVAKGVVKDEPETRVAIKTVNEAASMRERIEFLNEASVMKEFNCHHVVRLLGVVSQGQPTLVIMELMTRGDLKSYLRSLRPEMENNPVLAPPSLSKMIQMAGEIADGMAYLNANKFVHRDLAARNCMVAEDFTVKIGDFGMTRDIYETDYYRKGGKGLLPVRWMSPESLKDGVFTTYSDVWSFGVVLWEIATLAEQPYQGLSNEQVLRFVMEGGLLDKPDNCPDMLFELMRMCWQYNPKMRPSFLEIISSIKEEMEPGFREVSFYYSEENKLPEPEELDLEPENMESVPLDPSASSSSLPLPDRHSGHKAENGPGPGVLVLRASFDERQPYAHMNGGRKNERALPLPQSSTC
B9: INSRR (protein)
chain: YGKKRNRTLYASVNPEYFSASDMYVPDEWEVPREQISIIRELGQGSFGMVYEGLARGLEAGEESTPVALKTVNELASPRECIEFLKEASVMKAFKCHHVVRLLGVVSQGQPTLVIMELMTRGDLKSHLRSLRPEAENNPGLPQPALGEMIQMAGEIADGMAYLAANKFVHRDLAARNCMVSQDFTVKIGDFGMTRDVYETDYYRKGGKGLLPVRWMAPESLKDGIFTTHSDVWSFGVVLWEIVTLAEQPYQGLSNEQVLKFVMDGGVLEELEGCPLQLQELMSRCWQPNPRLRPSFTHILDSIQEELRPSFRLLSFYYSPECRGARGSLPTTDAEPDSSPTPRDCSPQNGGPGH
B10: FLT3 (protein)
chain: HKYKKQFRYESQLQMVQVTGSSDNEYFYVDFREYEYDLKWEFPRENLEFGKVLGSGAFGKVMNATAYGISKTGVSIQVAVKMLKEKADSSEREALMSELKMMTQLGSHENIVNLLGACTLSGPIYLIFEYCCYGDLLNYLRSKREKFHRTWTEIFKEHNFSFYPTFQSHPNSSMPGSREVQIHPDSDQISGLHGNSFHSEDEIEYENQKRLEEEEDLNVLTFEDLLCFAYQVAKGMEFLEFKSCVHRDLAARNVLVTHGKVVKICDFGLARDIMSDSNYVVRGNARLPVKWMAPESLFEGIYTIKSDVWSYGILLWEIFSLGVNPYPGIPVDANFYKLIQNGFKMDQPFYATEEIYIIMQSCWAFDSRKRPSFPNLTSFLGCQLADAEEAMYQNVDGRVSECPHTYQNRRPFSREMDLGLLSPQAQVEDS
B11: FGFR4 (protein)
chain: RGQALHGRHPRPPATVQKLSRFPLARQFSLESGSSGKSSSSLVRGVRLSSSGPALLAGLVSLDLPLDPLWEFPRDRLVLGKPLGEGCFGQVVRAEAFGMDPARPDQASTVAVKMLKDNASDKDLADLVSEMEVMKLIGRHKNIINLLGVCTQEGPLYVIVECAAKGNLREFLRARRPPGPDLSPDGPRSSEGPLSFPVLVSCAYQVARGMQYLESRKCIHRDLAARNVLVTEDNVMKIADFGLARGVHHIDYYKKTSNGRLPVKWMAPEALFDRVYTHQSDVWSFGILLWEIFTLGGSPYPGIPVEELFSLLREGHRMDRPPHCPPELYGLMRECWHAAPSQRPTFKQLVEALDKVLLAVSEEYLDLRLTFGPYSPSGGDASSTCSSSDSVFSHDPLPLGSSSFPFGSGVQT

The target in this data set is T1, Bovine, dephosphorylated, Myelin Basic ….
As for B1, the “MBP Kinase Activity” value is listed as “Strong”.

In the case of B2, the “MBP Kinase Activity” value is listed as “Negative”.

For the protein B3, the “MBP Kinase Activity” value is reported as “Negative”.

In the case of B4, the “MBP Kinase Activity” value is “Strong”.

As to B5, the “MBP Kinase Activity” value is “Strong”.

For the protein B6, the “MBP Kinase Activity” value is listed as “Strong”.

B7: the “MBP Kinase Activity” value is “Strong”.

Turning to B8, the “MBP Kinase Activity” value was “Strong”.

For the protein B9, the “MBP Kinase Activity” value is on record as “Negative”.

As to B10, the “MBP Kinase Activity” value was “Strong”.

In the case of B11, the “MBP Kinase Activity” value is “Strong”.

Source of the values: patent US20090099029.
